For the experiment, the target named is PP2A:B55 holoenzyme (PP2Aa, B55, PP2Ac) (UniProt P30153).
Chain of PP2A:B55 holoenzyme (PP2Aa, B55, PP2Ac) (P30153 9-589, chain 1 of 3): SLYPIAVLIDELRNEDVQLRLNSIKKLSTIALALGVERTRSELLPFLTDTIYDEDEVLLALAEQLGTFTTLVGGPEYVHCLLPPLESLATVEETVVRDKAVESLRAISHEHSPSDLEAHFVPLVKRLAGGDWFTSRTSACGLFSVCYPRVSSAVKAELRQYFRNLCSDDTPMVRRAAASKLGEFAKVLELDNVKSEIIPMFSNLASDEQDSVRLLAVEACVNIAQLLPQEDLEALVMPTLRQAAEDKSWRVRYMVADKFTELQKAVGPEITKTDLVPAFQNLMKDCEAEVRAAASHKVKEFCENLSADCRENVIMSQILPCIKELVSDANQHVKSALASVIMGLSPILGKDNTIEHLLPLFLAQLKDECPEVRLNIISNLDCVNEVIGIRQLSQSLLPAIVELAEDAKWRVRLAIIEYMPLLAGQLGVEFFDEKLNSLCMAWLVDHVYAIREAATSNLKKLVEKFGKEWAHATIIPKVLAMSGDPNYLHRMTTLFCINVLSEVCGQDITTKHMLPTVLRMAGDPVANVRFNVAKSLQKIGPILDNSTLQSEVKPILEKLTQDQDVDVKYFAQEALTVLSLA
Chain of PP2A:B55 holoenzyme (PP2Aa, B55, PP2Ac) (P63151 whole entry, chain 2 of 3, further chain, the tested form may be a part): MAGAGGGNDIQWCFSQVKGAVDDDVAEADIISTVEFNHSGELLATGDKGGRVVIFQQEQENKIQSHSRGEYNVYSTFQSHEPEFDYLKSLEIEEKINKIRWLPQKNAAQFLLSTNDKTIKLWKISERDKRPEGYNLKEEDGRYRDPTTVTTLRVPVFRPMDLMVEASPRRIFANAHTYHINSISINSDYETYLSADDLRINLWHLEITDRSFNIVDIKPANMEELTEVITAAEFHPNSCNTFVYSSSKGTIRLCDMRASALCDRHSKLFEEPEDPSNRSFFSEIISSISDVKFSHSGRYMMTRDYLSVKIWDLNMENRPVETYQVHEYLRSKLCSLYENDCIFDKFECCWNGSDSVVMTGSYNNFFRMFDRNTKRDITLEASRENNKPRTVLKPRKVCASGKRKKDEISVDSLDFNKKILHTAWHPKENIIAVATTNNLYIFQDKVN
Chain of PP2A:B55 holoenzyme (PP2Aa, B55, PP2Ac) (P67775 whole entry, chain 3 of 3, further chain, the tested form may be a part): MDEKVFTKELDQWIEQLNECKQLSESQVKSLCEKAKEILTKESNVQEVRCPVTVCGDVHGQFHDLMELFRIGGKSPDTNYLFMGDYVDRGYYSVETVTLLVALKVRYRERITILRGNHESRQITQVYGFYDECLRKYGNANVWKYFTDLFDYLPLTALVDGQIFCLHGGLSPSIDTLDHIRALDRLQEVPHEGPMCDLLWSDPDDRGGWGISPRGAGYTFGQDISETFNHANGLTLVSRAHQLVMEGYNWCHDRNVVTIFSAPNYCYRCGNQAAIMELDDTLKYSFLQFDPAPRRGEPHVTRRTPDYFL
FAM122AID R105L (domain or fragment) had an inhibition of PP2A:B55 phosphatase activity (DiFMUP), against wild type of 11 fold.

In turn, FAM122AID V107G (domain or fragment) gave an inhibition of PP2A:B55 phosphatase activity (DiFMUP), against wild type of 6 fold.

For the substance “FAM122AID E104A/S120C (domain or fragment)”, the inhibition of PP2A:B55 phosphatase activity (DiFMUP), against wild type came to 2 fold.

The record behind these values is article PMC10765524.
